Consider 1 protein from publication PMC9222203, “A Robust Assay to Monitor Ataxin-3 Amyloid Fibril Assembly” (Cells, 2022).

Data set [1] concerns the molecule itself.
Data set [2] concerns the molecule itself. As to the kind of experiment: switchSENSE; His-tagged protein (500 nM) captured on NTA3-functionalised DNA nanolevers; the same protein as analyte at 3.75-15 uM; PBS pH 7.5, 1 mM TCEP, 37 C; static measurement mode; global mono-exponential fits; self-association.

B1: Ataxin-3 Josephin domain (domain or fragment, human, UniProt P54252-2 1-180, looked up)
chain: MESIFHEKQEGSLCAQHCLNNLLQGEYFSPVELSSIAHQLDEEERMRMAEGGVTSEDYRTFLQQPSGNMDDSGFFSIQVISNALKVWGLELILFNSPEYQRLRIDPINERSFICNYKEHWFTVRKLGKQWFNLNSLLTGPELISDTYLALFLAQLQQEGYSIFVVKGDLPDCEADQLLQM
notes: Josephin domain of human ataxin-3 (UniProt P54252-2); A TEV site lies downstream of the His tag; no cleavage described; captured by its His tag in switchSENSE; also called Atx3 JD; JD; source: E. coli BL21(DE3)-SI, purified (Ni2+ IMAC, Sephacryl S-300 SEC); not shown: His6, N-terminal, kept
By Kd is commonly meant a measure of binding affinity in units of concentration. A high value points to weaker binding. Turning to B1, binding in data set [1] was put at a Kd of 4.6 µM. Also, the binding result in data set [2] was “binds”.
